{
  "source": "patent US20230227514A1",
  "about": "“BETA-ARRESTIN COMPOSITIONS AND ASSOCIATED METHODS” (Duke University, priority 2020, published 2023)",
  "key": {"V2R": {"target": "T1, V2R (Homo sapiens, UniProt P30518)", "T1 construct": "HA (N); expressed in transfected cells", "experiment": "BRET assay of βarrestin2 construct recruitment to V2R", "format": "cell-based", "conditions": "vasopressin stimulation, 15 min", "protocol": "Changes following agonist treatment are expressed as a percentage of the BRET signal observed in unstimulated cells (top panel). The histogram (bottom panel) represents Bmax values of agonist-induced BRET as means±SEM of 3 independent experiments performed in duplicates. Lack of significance (“ns”) of changes in energy transfer was evaluated using unpaired t-test.\nBRET assays. […] Titration assays were first completed, which allowed determination of the specificity of association among different interaction partners. See Nagi and Shenoy. 2019, supra; Gales et al. 2005. Nature methods 2:177-184; Nagi et al. 2015. Cellular and molecular life sciences: CMLS 72:3543-3557; Audet and Pineyro. 2011. Methods in molecular biology 756:149-163; and Rebois et al. 2006. Journal of cell science 119:2807-2818. […] BRET readings were acquired using Synergy Neo2 plate reader and obtained 5 min after manual addition of Rluc substrate, coelenterazine h (Promega) to a final concentration of 5 μM.\nThe BRET signal generated was determined by calculating the ratio of light emitted by YFP (520-550 nm) over the light emitted by Rluc (440-480 nm). These values were then corrected by subtracting the background signal (detected when the Rluc-tagged construct was expressed without acceptor) from the BRET signal detected in cells co-expressing both donor and acceptor constructs. […]"}, "RanGAP1": {"target": "T2, RanGAP1 (Homo sapiens, UniProt P46060)", "T2 construct": "endogenous in cells; host or cells: HEK-293T / HEK-293", "T2 sequence (P46060 2-587 limits assumed)": "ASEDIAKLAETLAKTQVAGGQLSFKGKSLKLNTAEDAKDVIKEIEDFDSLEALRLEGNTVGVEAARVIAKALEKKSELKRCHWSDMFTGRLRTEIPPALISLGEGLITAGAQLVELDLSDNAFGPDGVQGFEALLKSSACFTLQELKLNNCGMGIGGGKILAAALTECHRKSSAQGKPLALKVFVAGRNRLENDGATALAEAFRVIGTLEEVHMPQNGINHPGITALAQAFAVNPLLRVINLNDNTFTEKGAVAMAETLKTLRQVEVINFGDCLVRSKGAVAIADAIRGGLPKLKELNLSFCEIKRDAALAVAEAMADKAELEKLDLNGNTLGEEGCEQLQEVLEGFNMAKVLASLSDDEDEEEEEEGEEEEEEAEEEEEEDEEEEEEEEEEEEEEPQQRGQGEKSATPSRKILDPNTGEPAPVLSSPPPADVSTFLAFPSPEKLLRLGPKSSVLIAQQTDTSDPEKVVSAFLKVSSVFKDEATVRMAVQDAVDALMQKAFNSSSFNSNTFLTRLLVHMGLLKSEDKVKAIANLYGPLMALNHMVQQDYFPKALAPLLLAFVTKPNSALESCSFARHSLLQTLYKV", "T2 sequence (P63165 2-97 partner limits assumed)": "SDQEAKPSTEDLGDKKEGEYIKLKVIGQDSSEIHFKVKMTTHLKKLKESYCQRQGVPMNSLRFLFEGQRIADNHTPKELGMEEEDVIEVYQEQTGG", "experiment": "Confocal colocalization with endogenous RanGAP1 at the nuclear envelope", "format": "cell-based", "conditions": "HEK-293 cells with or without β2AR agonist stimulation", "protocol": "Immunostaining and confocal microscopy. […] Twenty-four hours post-transfection, cells were serum-starved for 4 h, and either left untreated or treated with respective agonists for the indicated times in the Figure descriptions. After stimulation, cells were fixed with 5% formaldehyde diluted in phosphate-buffered saline (PBS), permeabilized with 0.1% Triton in PBS containing 2% bovine serum albumin for 20 min and incubated at room temperature with appropriate primary antibody. The next day, cells were washed three times with PBS and incubated with Alexa594 conjugated secondary antibody for 1 h, followed by repeated washes using PBS. Confocal images were acquired using Zeiss LSM510 laser-scanning microscope using multitrack sequential with excitation (488 and 568 nm) and emission (BP 505-550 nm and LP 585 nm) filter sets. Images (1024×1024 pixels) were collected using either a 63× or 100× oil immersion lens. Images were processed for Figure presentation using Adobe Photoshop software, and any increase or decrease of brightness/contrast was applied to the entire image. The nuclear rim localization of YFP-βarrestin2-SUMO1 is readily visualized in cells with low to moderate expression of YFP-protein. In cells with high expression, this localization is present, and can be discerned by enlarging sections of the nuclear rim. […]"}},
  "data": [
    {"substance": "βarrestin2-SUMO1: rat βarrestin2 polypeptide fused to human SUMO1 (SEQ ID NO:1); used YFP- or Flag-tagged", "values": [
      {"measurement": "magnitude of interaction with activated V2R defined by BRET, versus βarrestin2", "setting": "V2R", "result": "No significant differences"},
      {"measurement": "colocalization with endogenous RanGAP1 at the nuclear envelope", "setting": "RanGAP1", "result": "dramatic increase in colocalization"}
    ]}
  ]
}
